Reference: US20110118131A1 (published 2011)
Where a chain is given by its changes, count along the chain named. Names and notes keep the numbering of the source.

B1: XPA23 Fab, heavy chain F35E (Fab, V domains shown)
VH: EVQLLESGGGLVQPGGSLRLSCAASGFTFSKYFMEWVRQAPGKGLEWVSVISPSGGMTRYADSVKGRFTISRDNSKNTLYLQMNSLRAEDTAVYYCARVGYGGNSDYWGQGTLVTVSS
VL: DIQMTQSPSSVSASVGDRLTIICRASQDINRWLAWYQQTPGNAPKLLIHSATSLQSGVPSRFSGSGSGTDFTLTINSLQPEDFATYYCQQADSFPLTFGGGTKVEIK
B2: XPA23 Fab, heavy chain F35W (Fab, V domains shown)
VH: B1 VH with E35W
VL: B1 VL
B3: XPA23 Fab, heavy chain G100W (Fab, V domains shown)
VH: B1 VH with E35F, G100W
VL: B1 VL
B4: XPA23 Fab, heavy chain G103D (Fab, V domains shown)
VH: B1 VH with E35F, G103D
VL: B1 VL
B5: XPA23 Fab, heavy chain G55S (Fab, V domains shown)
VH: B1 VH with E35F, G55S
VL: B1 VL
B6: XPA23 Fab, heavy chain G55Q (Fab, V domains shown)
VH: B1 VH with E35F, G55Q
VL: B1 VL
B7: XPA23 Fab, heavy chain G100Q (Fab, V domains shown)
VH: B1 VH with E35F, G100Q
VL: B1 VL
B8: XPA23 Fab, heavy chain G102R (Fab, V domains shown)
VH: B1 VH with E35F, G102R
VL: B1 VL
B9: XPA23 Fab, heavy chain G100Y (Fab, V domains shown)
VH: B1 VH with E35F, G100Y
VL: B1 VL
B10: XPA23 Fab, heavy chain G100D (Fab, V domains shown)
VH: B1 VH with E35F, G100D
VL: B1 VL
B11: XPA23 Fab, heavy chain G56Q (Fab, V domains shown)
VH: B1 VH with E35F, G56Q
VL: B1 VL
B12: XPA23 Fab, heavy chain G102E (Fab, V domains shown)
VH: B1 VH with E35F, G102E
VL: B1 VL
B13: XPA23 Fab, heavy chain G56F (Fab, V domains shown)
VH: B1 VH with E35F, G56F
VL: B1 VL
B14: XPA23 Fab, heavy chain G55K (Fab, V domains shown)
VH: B1 VH with E35F, G55K
VL: B1 VL
B15: XPA23 Fab, heavy chain G56N (Fab, V domains shown)
VH: B1 VH with E35F, G56N
VL: B1 VL
B16: XPA23 Fab, heavy chain G55D (Fab, V domains shown)
VH: B1 VH with E35F, G55D
VL: B1 VL
B17: XPA23 Fab, heavy chain G100S (Fab, V domains shown)
VH: B1 VH with E35F, G100S
VL: B1 VL
B18: XPA23 Fab, heavy chain G102Q (Fab, V domains shown)
VH: B1 VH with E35F, G102Q
VL: B1 VL
B19: XPA23 Fab, heavy chain G56H (Fab, V domains shown)
VH: B1 VH with E35F, G56H
VL: B1 VL
B20: XPA23 Fab, heavy chain G55Y (Fab, V domains shown)
VH: B1 VH with E35F, G55Y
VL: B1 VL
B21: XPA23 Fab, heavy chain F35Y (Fab, V domains shown)
VH: B1 VH with E35Y
VL: B1 VL
B22: XPA23 Fab, heavy chain G100H (Fab, V domains shown)
VH: B1 VH with E35F, G100H
VL: B1 VL
B23: XPA23 Fab, heavy chain G102Y (Fab, V domains shown)
VH: B1 VH with E35F, G102Y
VL: B1 VL
B24: XPA23 Fab, heavy chain G100K (Fab, V domains shown)
VH: B1 VH with E35F, G100K
VL: B1 VL
B25: XPA23 Fab, heavy chain F35H (Fab, V domains shown)
VH: B1 VH with E35H
VL: B1 VL
B26: XPA23 Fab, heavy chain G56R (Fab, V domains shown)
VH: B1 VH with E35F, G56R
VL: B1 VL
B27: XPA23 Fab, heavy chain F35Q (Fab, V domains shown)
VH: B1 VH with E35Q
VL: B1 VL
B28: XPA23 Fab, heavy chain G56D (Fab, V domains shown)
VH: B1 VH with E35F, G56D
VL: B1 VL
B29: XPA23 Fab, heavy chain F35K (Fab, V domains shown)
VH: B1 VH with E35K
VL: B1 VL
B30: XPA23 Fab, heavy chain F35S (Fab, V domains shown)
VH: B1 VH with E35S
VL: B1 VL
B31: XPA23 Fab, heavy chain G56W (Fab, V domains shown)
VH: B1 VH with E35F, G56W
VL: B1 VL
B32: XPA23 Fab, heavy chain F35N (Fab, V domains shown)
VH: B1 VH with E35N
VL: B1 VL
B33: XPA23 Fab, heavy chain G100R (Fab, V domains shown)
VH: B1 VH with E35F, G100R
VL: B1 VL
B34: XPA23 Fab, heavy chain G56E (Fab, V domains shown)
VH: B1 VH with E35F, G56E
VL: B1 VL
B35: XPA23 Fab, heavy chain G100F (Fab, V domains shown)
VH: B1 VH with E35F, G100F
VL: B1 VL
B36: XPA23 Fab, heavy chain F35R (Fab, V domains shown)
VH: B1 VH with E35R
VL: B1 VL
B37: XPA23 Fab, heavy chain G102N (Fab, V domains shown)
VH: B1 VH with E35F, G102N
VL: B1 VL
B38: XPA23 Fab, heavy chain G56Y (Fab, V domains shown)
VH: B1 VH with E35F, G56Y
VL: B1 VL
B39: XPA23 Fab, heavy chain G56K (Fab, V domains shown)
VH: B1 VH with E35F, G56K
VL: B1 VL
B40: XPA23 Fab, heavy chain G102H (Fab, V domains shown)
VH: B1 VH with E35F, G102H
VL: B1 VL
B41: XPA23 Fab, heavy chain G102K (Fab, V domains shown)
VH: B1 VH with E35F, G102K
VL: B1 VL
B42: XPA23 Fab, heavy chain G55N (Fab, V domains shown)
VH: B1 VH with E35F, G55N
VL: B1 VL
B43: XPA23 Fab, heavy chain G55R (Fab, V domains shown)
VH: B1 VH with E35F, G55R
VL: B1 VL
B44: XPA23 Fab, heavy chain G102W (Fab, V domains shown)
VH: B1 VH with E35F, G102W
VL: B1 VL
B45: XPA23 Fab, heavy chain G103E (Fab, V domains shown)
VH: B1 VH with E35F, G103E
VL: B1 VL
B46: XPA23 Fab, heavy chain G55E (Fab, V domains shown)
VH: B1 VH with E35F, G55E
VL: B1 VL

What follows are binders tested against T1, IL-1beta (UniProt P01584 117-269) (assay: Biacore).
T1 construct: also called IL-1β

binding result	fold difference in affinity vs parental [fold]	Binder
no binding	–	B1
no binding	–	B2
–	0.05	B3
no binding	–	B4
–	1.02	B5
–	0.9	B6
no binding	–	B7
no binding	–	B8
–	0.09	B9
no binding	–	B10
–	1.31	B11
no binding	–	B12
–	1.41	B13
–	0.11	B14
–	1.06	B15
no binding	–	B16
–	2.8	B17
no binding	–	B18
–	0.82	B19
–	0.08	B20
–	0.85	B21
–	0.06	B22
no binding	–	B23

binding result	fold difference in affinity vs parental [fold]	Binder
no binding	–	B24
no binding	–	B25
–	2.11	B26
no binding	–	B27
–	0.05	B28
–	0.68	B29
–	0.09	B30
–	1.51	B31
–	0.86	B32
no binding	–	B33
–	1.21	B34
no binding	–	B35
no binding	–	B36
–	1.17	B37
–	1.27	B38
–	2.05	B39
no binding	–	B40
no binding	–	B41
–	0.1	B42
–	0.95	B43
no binding	–	B44
no binding	–	B45
–	0.11	B46
